Numbering of substitutions follows the chain as printed. Names may count otherwise.
Tests used:
[1] = target: T1, native sigmaA-RNA polymerase holoenzyme (Bacillus subtilis, UniProt P20429;P37870;P37871;P06224 1-314;1-1193;1-1199;1-371); test: EMSA; 5 mM Mg2+, heparin 80 ng/uL; 40 mM Tris-HCl pH 8.0, 5 mM MgCl2, 160 mM KCl, 1 mM DTT, heparin 80 ng/uL, ~10 nM RNA, plus RNAP storage buffer; 30 min at 37 C; native 7.5% PAGE (10% for Fig 12); details: protein: native, chain copies: 2;1;1;1, label: 5'-32P
T1 sequence (P20429 whole entry, chain 1 of 4): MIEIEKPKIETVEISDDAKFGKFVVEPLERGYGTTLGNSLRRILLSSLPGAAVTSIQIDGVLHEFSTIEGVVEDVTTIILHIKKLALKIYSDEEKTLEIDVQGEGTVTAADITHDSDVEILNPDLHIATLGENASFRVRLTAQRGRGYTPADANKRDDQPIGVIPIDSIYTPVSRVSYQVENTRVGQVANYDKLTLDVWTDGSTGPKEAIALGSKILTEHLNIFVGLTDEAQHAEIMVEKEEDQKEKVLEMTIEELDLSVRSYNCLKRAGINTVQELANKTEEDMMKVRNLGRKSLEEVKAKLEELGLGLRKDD
T1 sequence (P37870 whole entry, chain 2 of 4): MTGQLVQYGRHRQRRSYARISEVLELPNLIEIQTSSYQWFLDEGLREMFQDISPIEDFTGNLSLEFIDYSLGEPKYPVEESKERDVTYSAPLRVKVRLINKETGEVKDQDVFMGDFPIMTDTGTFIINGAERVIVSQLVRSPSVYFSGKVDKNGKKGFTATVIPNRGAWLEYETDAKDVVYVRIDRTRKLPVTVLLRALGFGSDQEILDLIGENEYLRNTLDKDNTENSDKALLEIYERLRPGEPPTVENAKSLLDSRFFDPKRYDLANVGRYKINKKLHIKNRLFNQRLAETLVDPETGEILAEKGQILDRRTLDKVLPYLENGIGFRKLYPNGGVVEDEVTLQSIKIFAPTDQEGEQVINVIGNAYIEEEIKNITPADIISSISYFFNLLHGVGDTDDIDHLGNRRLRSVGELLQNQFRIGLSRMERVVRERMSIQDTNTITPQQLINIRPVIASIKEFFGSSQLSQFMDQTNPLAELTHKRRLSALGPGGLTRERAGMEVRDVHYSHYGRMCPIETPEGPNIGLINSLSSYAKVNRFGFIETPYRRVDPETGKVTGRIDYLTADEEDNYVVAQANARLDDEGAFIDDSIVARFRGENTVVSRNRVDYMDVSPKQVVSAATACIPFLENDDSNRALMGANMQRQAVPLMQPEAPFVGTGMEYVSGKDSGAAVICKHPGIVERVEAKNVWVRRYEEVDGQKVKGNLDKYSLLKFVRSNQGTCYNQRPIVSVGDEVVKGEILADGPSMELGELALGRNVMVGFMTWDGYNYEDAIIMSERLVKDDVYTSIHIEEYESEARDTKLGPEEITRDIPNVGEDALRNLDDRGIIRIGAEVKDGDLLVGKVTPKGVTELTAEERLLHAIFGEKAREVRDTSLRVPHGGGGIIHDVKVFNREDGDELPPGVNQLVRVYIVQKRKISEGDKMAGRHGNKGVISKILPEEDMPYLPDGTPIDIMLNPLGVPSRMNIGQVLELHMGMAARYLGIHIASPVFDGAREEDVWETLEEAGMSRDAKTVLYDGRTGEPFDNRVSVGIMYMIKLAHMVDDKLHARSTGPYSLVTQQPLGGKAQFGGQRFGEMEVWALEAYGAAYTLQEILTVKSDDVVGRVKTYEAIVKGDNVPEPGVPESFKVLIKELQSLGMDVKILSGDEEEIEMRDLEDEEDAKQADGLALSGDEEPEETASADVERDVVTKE
T1 sequence (P37871 whole entry, chain 3 of 4): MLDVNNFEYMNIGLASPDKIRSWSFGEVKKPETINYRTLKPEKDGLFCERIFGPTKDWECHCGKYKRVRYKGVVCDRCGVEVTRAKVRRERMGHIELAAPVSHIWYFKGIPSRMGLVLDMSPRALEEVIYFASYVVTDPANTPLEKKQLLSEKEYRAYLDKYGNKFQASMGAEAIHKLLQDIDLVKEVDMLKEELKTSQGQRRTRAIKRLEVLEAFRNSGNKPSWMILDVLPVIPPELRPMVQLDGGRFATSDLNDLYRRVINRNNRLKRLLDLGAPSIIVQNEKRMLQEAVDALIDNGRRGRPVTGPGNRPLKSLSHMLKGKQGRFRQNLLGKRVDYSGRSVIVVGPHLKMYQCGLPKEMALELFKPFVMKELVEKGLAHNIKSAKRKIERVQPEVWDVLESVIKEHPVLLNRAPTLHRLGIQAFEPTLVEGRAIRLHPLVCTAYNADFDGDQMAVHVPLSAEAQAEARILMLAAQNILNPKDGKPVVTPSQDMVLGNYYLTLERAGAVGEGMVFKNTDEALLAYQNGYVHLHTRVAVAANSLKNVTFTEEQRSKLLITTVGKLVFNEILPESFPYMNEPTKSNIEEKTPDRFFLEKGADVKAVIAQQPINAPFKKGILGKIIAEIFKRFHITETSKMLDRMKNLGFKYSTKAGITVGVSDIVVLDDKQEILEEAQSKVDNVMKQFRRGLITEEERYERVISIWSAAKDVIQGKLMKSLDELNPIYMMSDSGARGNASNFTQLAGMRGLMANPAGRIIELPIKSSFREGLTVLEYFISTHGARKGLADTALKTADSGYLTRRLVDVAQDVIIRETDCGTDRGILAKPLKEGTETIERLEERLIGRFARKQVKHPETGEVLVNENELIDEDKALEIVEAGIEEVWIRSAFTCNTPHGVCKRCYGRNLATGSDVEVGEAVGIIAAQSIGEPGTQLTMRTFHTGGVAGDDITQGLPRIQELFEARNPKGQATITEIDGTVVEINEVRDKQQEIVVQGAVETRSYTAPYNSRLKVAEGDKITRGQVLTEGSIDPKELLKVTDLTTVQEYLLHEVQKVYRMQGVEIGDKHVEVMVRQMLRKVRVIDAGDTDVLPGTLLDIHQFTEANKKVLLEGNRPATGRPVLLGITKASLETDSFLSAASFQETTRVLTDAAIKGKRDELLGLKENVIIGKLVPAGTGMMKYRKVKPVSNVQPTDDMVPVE
T1 sequence (P06224 whole entry, chain 4 of 4): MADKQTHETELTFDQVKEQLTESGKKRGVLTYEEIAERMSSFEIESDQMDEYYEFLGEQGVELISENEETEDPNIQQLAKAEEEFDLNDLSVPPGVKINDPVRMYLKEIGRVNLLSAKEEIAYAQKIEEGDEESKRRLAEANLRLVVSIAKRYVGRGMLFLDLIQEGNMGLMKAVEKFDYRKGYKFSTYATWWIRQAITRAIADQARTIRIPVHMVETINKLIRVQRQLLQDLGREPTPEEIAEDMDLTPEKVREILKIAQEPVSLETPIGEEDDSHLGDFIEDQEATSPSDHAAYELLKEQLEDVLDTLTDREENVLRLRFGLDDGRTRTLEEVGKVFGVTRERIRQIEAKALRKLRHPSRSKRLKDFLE

[2] = target: T1, native sigmaA-RNA polymerase holoenzyme; test: EMSA; pLNA pre-annealed; 40 mM Tris-HCl pH 8.0, 5 mM MgCl2, 160 mM KCl, 1 mM DTT, heparin 80 ng/uL, ~10 nM RNA, plus RNAP storage buffer; 30 min at 37 C; native 7.5% PAGE (10% for Fig 12); details: protein: native; chain copies: 2;1;1;1; label: 5'-32P on 6S-1 RNA; pLNA annealed to 6S-1 RNA from nt 40 upstream
[3] = target: T1, native sigmaA-RNA polymerase holoenzyme; test: EMSA; pRNA pre-annealed; 40 mM Tris-HCl pH 8.0, 5 mM MgCl2, 160 mM KCl, 1 mM DTT, heparin 80 ng/uL, ~10 nM RNA, plus RNAP storage buffer; 30 min at 37 C; native 7.5% PAGE (10% for Fig 12); details: protein: native; chain copies: 2;1;1;1; label: 5'-32P on 6S-1 RNA; pRNA annealed to 6S-1 RNA from nt 40 upstream
[4] = target: T1, native sigmaA-RNA polymerase holoenzyme; test: EMSA; Kd printed only in graph; 40 mM Tris-HCl pH 8.0, 5 mM MgCl2, 160 mM KCl, 1 mM DTT, heparin 80 ng/uL, ~10 nM RNA, plus RNAP storage buffer; 30 min at 37 C; native 7.5% PAGE (10% for Fig 12); details: protein: native; chain copies: 2;1;1;1; label: 5'-32P
[5] = target: T1, native sigmaA-RNA polymerase holoenzyme; test: EMSA; up to 3-fold with other RNAP preparations; 40 mM Tris-HCl pH 8.0, 5 mM MgCl2, 160 mM KCl, 1 mM DTT, heparin 80 ng/uL, ~10 nM RNA, plus RNAP storage buffer; 30 min at 37 C; native 7.5% PAGE (10% for Fig 12); details: protein: native; chain copies: 2;1;1;1; label: 5'-32P
[6] = target: T2, sigmaA-RNA polymerase holoenzyme (native or His-tagged SG7 preparation, not specified for this assay) (Bacillus subtilis, UniProt P20429;P37870;P37871;P06224 1-314;1-1193;1-1199;1-371); test: EMSA; K1/2 printed only in graph; 40 mM Tris-HCl pH 8.0, 5 mM MgCl2, 160 mM KCl, 1 mM DTT, heparin 80 ng/uL, ~10 nM RNA, plus RNAP storage buffer; 30 min at 37 C; native 7.5% PAGE (10% for Fig 12); details: protein: native; chain copies: 2;1;1;1; label: 5'-32P
T2 sequence (P20429 whole entry, chain 1 of 4): as the sequence (P20429 whole entry, chain 1 of 4) above
T2 sequence (P37870 whole entry, chain 2 of 4): as the sequence (P37870 whole entry, chain 2 of 4) above
T2 sequence (P37871 whole entry, chain 3 of 4): as the sequence (P37871 whole entry, chain 3 of 4) above
T2 sequence (P06224 whole entry, chain 4 of 4): as the sequence (P06224 whole entry, chain 4 of 4) above

[7] = target: T2, sigmaA-RNA polymerase holoenzyme …; test: EMSA; almost three-fold; K1/2 only in graph; 40 mM Tris-HCl pH 8.0, 5 mM MgCl2, 160 mM KCl, 1 mM DTT, heparin 80 ng/uL, ~10 nM RNA, plus RNAP storage buffer; 30 min at 37 C; native 7.5% PAGE (10% for Fig 12); details: protein: native; chain copies: 2;1;1;1; label: 5'-32P

B1: wt 6S-1 RNA (190 nt) (structured_RNA)
RNA: AGUCCUGAUGUGUUAGUUGUACACCUAGUUUUGACCGAACAUUUUUUUGAUUUGGGAGCCCGCAUUUUUAAAUGGCGUACAUGCCUCUUUUCAUUCGGUAAAGAGGACUUACAAGAUUUAAAAGAGGGCACCCACCUGCUGAGAGCGGGUUCAAAACAAAGGAAAGCUGCAACGGCACUAUUGGGACUUU
[1]; rod-shaped, central bubble flanked by two helical arms
  apparent K (half saturation): ~100 nM

B2: 6S78 RNA (structured_RNA)
RNA: CCUAGUUUUGACCGAACAUUUUUUUGAUUUGGGAGCCCGCAGGGCACCCACCUGCUGAGAGCGGGUUCAAAACAAAGG
[1]
  apparent K (half saturation): ~1000 nM

B3: 6S-1 RNA:pLNA 6-mer (mixed)
RNA: B1 RNA
DNA: GTTCGG
modifications: strand 2 LNA, iso-sequential to pRNA (first 6 nt inferred)
[2]
  binding result: no binding

B4: 6S-1 RNA:pLNA 7-mer (mixed)
RNA: B1 RNA
DNA: GTTCGGT
modifications: strand 2 LNA, iso-sequential to pRNA (first 7 nt inferred)
[2]
  binding result: no binding

B5: 6S-1 RNA:pLNA 8-mer (mixed)
RNA: B1 RNA
DNA: GTTCGGTC
modifications: strand 2 all-LNA
[2]
  binding result: no binding

B6: 6S82cp RNA (structured_RNA)
RNA: GGGCACCCACCUGCUGAGAGCGGGUUCAAAACAAAGGAAAGCCACCUAGUUUUGACCGAACAUUUUUUUGAUUUGGGAGCCC
[1]; artificial loop capping P2
  apparent K (half saturation): ~1000 nM

B7: 6S-1 RNA:pRNA 14-mer (structured_RNA)
RNA 1: B1 RNA
RNA 2: GUUCGGUCAAAACU
[3]
  binding result: no binding

B8: 6S-1 RNA A50U (structured_RNA)
RNA: B1 RNA with A50U
[4]
  binding signal: ~2 fold Kd increase vs wt

B9: 6S-1 RNA C44/45 (structured_RNA)
RNA: B1 RNA with U44C, U45C
[5]
  binding signal: ~2 fold lower affinity vs wt

B10: C44/45 8M 6S-1 RNA (structured_RNA)
RNA: B1 RNA with U30C, U31A, U32A, A34G, U44C, U45C, U151C, A153U, A154U, A155G
[6]
  binding signal: ~1.5 fold lower affinity vs wt 8M

B11: C44/45 6M 6S-1 RNA (structured_RNA)
RNA: B1 RNA with U30C, U31A, U32A, A34G, U44C, U45C, A154U, A155G
[7]
  binding signal: ~3 fold lower affinity vs wt 6M

Source: publication PMC8876501, “Structural and Functional Insight into the Mechanism of Bacillus subtilis 6S-1 RNA Release from RNA Polymerase”
